Measurements as given in paper doi:10.1101/228536 (bioRxiv, 2017).

T1: Med15 ABD3 (Med15 484-651) (yeast, UniProt P19659 484-651)
T1 sequence (looked up): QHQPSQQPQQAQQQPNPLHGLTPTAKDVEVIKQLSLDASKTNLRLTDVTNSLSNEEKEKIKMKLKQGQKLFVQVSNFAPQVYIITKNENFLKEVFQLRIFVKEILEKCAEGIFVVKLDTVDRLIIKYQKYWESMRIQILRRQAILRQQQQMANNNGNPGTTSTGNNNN

T2: Med15 KIX+ABD1,2,3 (Med15 1-651 Δ239-272, Δ373-483) (yeast, UniProt P19659 1-651, Δ239-272 | Δ373-483)
T2 sequence (looked up): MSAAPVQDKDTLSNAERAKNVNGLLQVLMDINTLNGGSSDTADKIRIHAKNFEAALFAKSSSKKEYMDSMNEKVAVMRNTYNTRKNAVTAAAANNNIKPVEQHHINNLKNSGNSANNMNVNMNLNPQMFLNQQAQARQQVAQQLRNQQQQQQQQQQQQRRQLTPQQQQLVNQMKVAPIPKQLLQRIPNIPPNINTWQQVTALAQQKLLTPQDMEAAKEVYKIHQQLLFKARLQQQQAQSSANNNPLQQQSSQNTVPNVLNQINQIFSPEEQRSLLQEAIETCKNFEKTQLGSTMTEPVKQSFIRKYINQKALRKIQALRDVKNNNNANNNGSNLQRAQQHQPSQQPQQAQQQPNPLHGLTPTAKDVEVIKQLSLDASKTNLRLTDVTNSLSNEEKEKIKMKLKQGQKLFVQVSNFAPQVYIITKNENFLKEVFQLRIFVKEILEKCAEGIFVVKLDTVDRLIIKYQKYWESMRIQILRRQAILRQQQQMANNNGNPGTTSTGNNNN

T3: Med15 ABD1,2,3 (Med15 158-651 Δ239-272, Δ373-483) (yeast, UniProt P19659 158-651, Δ239-272 | Δ373-483)
T3 sequence (looked up): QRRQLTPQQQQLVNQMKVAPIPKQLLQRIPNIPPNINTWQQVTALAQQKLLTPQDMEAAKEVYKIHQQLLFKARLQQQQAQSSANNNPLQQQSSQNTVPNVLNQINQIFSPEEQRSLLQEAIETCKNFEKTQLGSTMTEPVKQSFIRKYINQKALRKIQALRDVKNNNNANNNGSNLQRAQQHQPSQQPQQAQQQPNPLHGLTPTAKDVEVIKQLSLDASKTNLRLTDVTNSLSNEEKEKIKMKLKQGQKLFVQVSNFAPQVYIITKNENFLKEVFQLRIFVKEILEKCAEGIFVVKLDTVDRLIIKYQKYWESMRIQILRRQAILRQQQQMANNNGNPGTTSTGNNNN

T4: Med15 ABD2 (Med15 277-368) (yeast, UniProt P19659 277-368)
T4 sequence (looked up): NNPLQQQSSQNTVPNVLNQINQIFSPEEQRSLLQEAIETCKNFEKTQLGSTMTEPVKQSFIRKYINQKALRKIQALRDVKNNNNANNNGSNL

B1: Met4 72-160 (domain or fragment, yeast, UniProt P32389 72-160, looked up)
chain: VTNRGNTNLYDHAVTPEILLEQLAYVDNFIPSLDNEFSNVDWNVNTTHNNANNNGADTFSSINANPFDLDEQLAIELSAFADDSFIFPD

Experiments:
[1] = target: B1; test: ITC
[2] = target: T1, Med15 ABD3 (Med15 484-651); test: fluorescence polarisation
[3] = target: T2, Med15 KIX+ABD1,2,3 (Med15 1-651 …); test: fluorescence polarisation
[4] = target: T3, Med15 ABD1,2,3 (Med15 158-651 Δ239-272, …); test: fluorescence polarisation
[5] = target: T4, Med15 ABD2 (Med15 277-368); test: ITC
[6] = target: T1, Med15 ABD3 (Med15 484-651); test: ITC
[7] = target: T2, Med15 KIX+ABD1,2,3 (Med15 1-651 …); test: cross-linking

binding result [2]	Kd [3] [nM]	Kd [4] [nM]	Kd [5] [nM]	Kd [6] [nM]	Binder	also measured
–	–	–	–	–	Med15 ABD1 (Med15 158-238) (domain or fragment, yeast, UniProt P19659 158-238, looked up) QRRQLTPQQQQLVNQMKVAPIPKQLLQRIPNIPPNINTWQQVTALAQQKLLTPQDMEAAKEVYKIHQQLLFKARLQQQQAQ	binding result [1]: binds
binds	210	~300	–	–	Oregon Green-labeled Ino2 1-41-(GS)3-96-160 (domain or fragment, yeast, Oregon Green 488 dye, N-terminal fluorescent label) MQQATGNELLGILDLDNDIDFETAYQMLSSNFDDQMSAHIHGSGSGSPHQPSMGFDQALGLKLSPSSSGLLSTNESNAIEQFLDNLISQDMMSSNASMNSESHLHIRSPKKQ	–
–	–	–	34000	7800	Ino2 1-41-(GS)3-96-160 (domain or fragment, yeast) MQQATGNELLGILDLDNDIDFETAYQMLSSNFDDQMSAHIHGSGSGSPHQPSMGFDQALGLKLSPSSSGLLSTNESNAIEQFLDNLISQDMMSSNASMNSESHLHIRSPKKQ	–
–	–	–	20000	1360	B1	binding result [7]: binds
binds	196	~300	–	–	Oregon Green-labeled Met4 72-160 (domain or fragment, yeast, UniProt P32389 72-160, looked up, Oregon Green 488 dye, N-terminal fluorescent label) VTNRGNTNLYDHAVTPEILLEQLAYVDNFIPSLDNEFSNVDWNVNTTHNNANNNGADTFSSINANPFDLDEQLAIELSAFADDSFIFPD	–
